The source of these data is the array DNA melting data of Ke et al..

The nature of this series: melting temperature; melt of duplexes. The settings on record: sodium 0.0675 M; strand 1 µM.
One may read the Tm as the temperature at which the thermal transition is half complete. As to “CGACGTGCCGTATGTGCTG+CAGCACATTACGCACGTCG ((((((((...((((((((+))))))))...))))))))”, the Tm is 50.9 °C.

In the case of “CGACGTGCAAAATGTGCTG+CAGCACATGTTGCACGTCG ((((((((((.((((((((+)))))))).))))))))))”, the Tm was 56.4 °C.

For the substance “CGACGTGCCTAATGTGCTG+CAGCACATTTTGCACGTCG ((((((((..(((((((((+)))))))))..))))))))”, the Tm was 51.1 °C.

For “CGACGTGCCCCATGTGCTG+CAGCACATATCGCACGTCG ((((((((...((((((((+))))))))...))))))))”, the Tm was determined as 45.5 °C.

Consider “CGACGTGCAATATGTGCTG+CAGCACATGCAGCACGTCG ((((((((...((((((((+))))))))...))))))))”, for which the Tm came out at 52.1 °C.

Turning to “CGACGTGCAGAATGTGCTG+CAGCACATCTCGCACGTCG ((((((((...((((((((+))))))))...))))))))”, the Tm amounted to 51.6 °C.

With “CGACGTGCTGCATGTGCTG+CAGCACATACTGCACGTCG ((((((((.(.((((((((+)))))))).).))))))))”, the Tm was found to be 53 °C.

As to “CGACGTGCGGCATGTGCTG+CAGCACATAATGCACGTCG ((((((((...((((((((+))))))))...))))))))”, the Tm is 51.1 °C.

For “CGACGTGCCCGATGTGCTG+CAGCACATTCCGCACGTCG ((((((((...((((((((+))))))))...))))))))”, the Tm came to 48.2 °C.

On to “CGACGTGCCCAATGTGCTG+CAGCACATTTAGCACGTCG ((((((((..(((((((((+)))))))))..))))))))”, for which the melting temperature (Tm) turned out to be 50.4 °C.

On to “CGACGTGCGACATGTGCTG+CAGCACATGGGGCACGTCG ((((((((..(((((((((+)))))))))..))))))))”, for which the Tm worked out at 58.4 °C.

For the substance “CGACGTGCAAGATGTGCTG+CAGCACATATGGCACGTCG ((((((((.(.((((((((+)))))))).).))))))))”, the Tm came out at 53 °C.

For the substance “CGACGTGCGAGATGTGCTG+CAGCACATGCAGCACGTCG ((((((((...((((((((+))))))))...))))))))”, the Tm amounted to 53.7 °C.

As for “CGACGTGCGCTATGTGCTG+CAGCACATCACGCACGTCG (((((((((..((((((((+))))))))..)))))))))”, the Tm stood at 53.3 °C.

“CGACGTGCAGTATGTGCTG+CAGCACATGTGGCACGTCG ((((((((...((((((((+))))))))...))))))))”: the Tm came to 50.4 °C.

Turning to “CGACGTGCCTTATGTGCTG+CAGCACATTTCGCACGTCG ((((((((...((((((((+))))))))...))))))))”, the Tm was determined as 47.1 °C.

For “CGACGTGCGTCATGTGCTG+CAGCACATCAAGCACGTCG ((((((((.(.((((((((+)))))))).).))))))))”, the Tm is 52.6 °C.

“CGACGTGCTAAATGTGCTG+CAGCACATTGCGCACGTCG ((((((((..(((((((((+)))))))))..))))))))”: the Tm was found to be 51.2 °C.

As for “CGACGTGCCCTATGTGCTG+CAGCACATAGGGCACGTCG (((((((((((((((((((+)))))))))))))))))))”, the Tm came out at 64.4 °C.

In the case of “CGACGTGCATTATGTGCTG+CAGCACATAGTGCACGTCG (((((((((.(((((((((+))))))))).)))))))))”, the Tm stood at 53.1 °C.

As to “CGACGTGCGGGATGTGCTG+CAGCACATATCGCACGTCG (((((((((..((((((((+))))))))..)))))))))”, the melting temperature (Tm) was 56.7 °C.

As to “CGACGTGCCAAATGTGCTG+CAGCACATTTTGCACGTCG ((((((((.((((((((((+)))))))))).))))))))”, the Tm was found to be 55.1 °C.

In the case of “CGACGTGCATGATGTGCTG+CAGCACATACAGCACGTCG ((((((((...((((((((+))))))))...))))))))”, the Tm was 49.5 °C.

Regarding “CGACGTGCCGAATGTGCTG+CAGCACATTTTGCACGTCG ((((((((..(((((((((+)))))))))..))))))))”, the Tm came to 51.7 °C.

Consider “CGACGTGCGACATGTGCTG+CAGCACATCGAGCACGTCG ((((((((...((((((((+))))))))...))))))))”, for which the Tm was 54.8 °C.

As to “CGACGTGCTGAATGTGCTG+CAGCACATGATGCACGTCG ((((((((...((((((((+))))))))...))))))))”, the Tm is 55.2 °C.

In the case of “CGACGTGCAATATGTGCTG+CAGCACATGGCGCACGTCG ((((((((...((((((((+))))))))...))))))))”, the Tm turned out to be 50.5 °C.

Take “CGACGTGCGATATGTGCTG+CAGCACATGGTGCACGTCG ((((((((...((((((((+))))))))...))))))))”: the Tm came to 49.2 °C.

For the substance “CGACGTGCAGCATGTGCTG+CAGCACATAAGGCACGTCG ((((((((...((((((((+))))))))...))))))))”, the Tm came to 47.6 °C.

As to “CGACGTGCATTATGTGCTG+CAGCACATGTAGCACGTCG ((((((((...((((((((+))))))))...))))))))”, the Tm stood at 49.4 °C.

In the case of “CGACGTGCCATATGTGCTG+CAGCACATATAGCACGTCG ((((((((.((((((((((+)))))))))).))))))))”, the Tm was 53.2 °C.

As for “CGACGTGCACAATGTGCTG+CAGCACATGACGCACGTCG ((((((((...((((((((+))))))))...))))))))”, the Tm stood at 48.2 °C.

With “CGACGTGCCACATGTGCTG+CAGCACATATAGCACGTCG ((((((((.(.((((((((+)))))))).).))))))))”, the Tm worked out at 48.4 °C.

As for “CGACGTGCTATATGTGCTG+CAGCACATAATGCACGTCG ((((((((..(((((((((+)))))))))..))))))))”, the Tm amounted to 53 °C.

As for “CGACGTGCTAGATGTGCTG+CAGCACATTGAGCACGTCG (((((((((..((((((((+))))))))..)))))))))”, the Tm came to 54 °C.

For “CGACGTGCATTATGTGCTG+CAGCACATGCCGCACGTCG ((((((((...((((((((+))))))))...))))))))”, the Tm came to 47.5 °C.

For “CGACGTGCGTTATGTGCTG+CAGCACATGGCGCACGTCG (((((((((..((((((((+))))))))..)))))))))”, the Tm was found to be 57.5 °C.

Regarding “CGACGTGCCTGATGTGCTG+CAGCACATCATGCACGTCG ((((((((.((((((((((+)))))))))).))))))))”, the melting temperature (Tm) is 56.9 °C.

For “CGACGTGCTTCATGTGCTG+CAGCACATCACGCACGTCG ((((((((.(.((((((((+)))))))).).))))))))”, the Tm was 47.8 °C.

As to “CGACGTGCCTGATGTGCTG+CAGCACATAAGGCACGTCG ((((((((((.((((((((+)))))))).))))))))))”, the Tm was found to be 59 °C.

As to “CGACGTGCACAATGTGCTG+CAGCACATATGGCACGTCG ((((((((...((((((((+))))))))...))))))))”, the Tm was 47.7 °C.

Turning to “CGACGTGCATTATGTGCTG+CAGCACATCTTGCACGTCG (((((((((..((((((((+))))))))..)))))))))”, the Tm is 51.1 °C.

On to “CGACGTGCCTAATGTGCTG+CAGCACATGGAGCACGTCG ((((((((...((((((((+))))))))...))))))))”, for which the Tm turned out to be 51.9 °C.

Turning to “CGACGTGCAGAATGTGCTG+CAGCACATTGGGCACGTCG ((((((((..(((((((((+)))))))))..))))))))”, the Tm was 53.8 °C.

Consider “CGACGTGCACAATGTGCTG+CAGCACATAAAGCACGTCG ((((((((...((((((((+))))))))...))))))))”, for which the Tm amounted to 47.4 °C.

As to “CGACGTGCTGTATGTGCTG+CAGCACATCTTGCACGTCG ((((((((...((((((((+))))))))...))))))))”, the Tm came out at 49.9 °C.

Consider “CGACGTGCGTCATGTGCTG+CAGCACATGGAGCACGTCG ((((((((..(((((((((+)))))))))..))))))))”, for which the Tm was 58.4 °C.

As to “CGACGTGCATAATGTGCTG+CAGCACATCATGCACGTCG ((((((((((.((((((((+)))))))).))))))))))”, the Tm stood at 54 °C.

In the case of “CGACGTGCAGCATGTGCTG+CAGCACATGCTGCACGTCG (((((((((((((((((((+)))))))))))))))))))”, the Tm worked out at 66.1 °C.

Consider “CGACGTGCCTAATGTGCTG+CAGCACATTAGGCACGTCG (((((((((((((((((((+)))))))))))))))))))”, for which the Tm is 63.6 °C.

As to “CGACGTGCTTAATGTGCTG+CAGCACATTGGGCACGTCG ((((((((..(((((((((+)))))))))..))))))))”, the Tm was found to be 53.5 °C.

Regarding “CGACGTGCAGGATGTGCTG+CAGCACATAAGGCACGTCG ((((((((...((((((((+))))))))...))))))))”, the Tm was determined as 50.8 °C.

For the substance “CGACGTGCAAGATGTGCTG+CAGCACATCGGGCACGTCG ((((((((..(((((((((+)))))))))..))))))))”, the Tm stood at 57 °C.

“CGACGTGCTTTATGTGCTG+CAGCACATCCGGCACGTCG ((((((((...((((((((+))))))))...))))))))”: the Tm came to 48.2 °C.

In the case of “CGACGTGCCAAATGTGCTG+CAGCACATGTTGCACGTCG ((((((((.(.((((((((+)))))))).).))))))))”, the Tm stood at 50.5 °C.

Turning to “CGACGTGCTGAATGTGCTG+CAGCACATTTCGCACGTCG ((((((((..(((((((((+)))))))))..))))))))”, the Tm stood at 53.1 °C.

As for “CGACGTGCCTGATGTGCTG+CAGCACATCACGCACGTCG ((((((((.((((((((((+)))))))))).))))))))”, the melting temperature (Tm) amounted to 55.5 °C.

For the substance “CGACGTGCTTAATGTGCTG+CAGCACATTGCGCACGTCG ((((((((..(((((((((+)))))))))..))))))))”, the Tm came out at 50.1 °C.

For “CGACGTGCTGGATGTGCTG+CAGCACATTGGGCACGTCG ((((((((...((((((((+))))))))...))))))))”, the Tm came to 52 °C.

With “CGACGTGCGGAATGTGCTG+CAGCACATACGGCACGTCG ((((((((.(.((((((((+)))))))).).))))))))”, the Tm was found to be 53.3 °C.

For “CGACGTGCTCAATGTGCTG+CAGCACATGAGGCACGTCG ((((((((...((((((((+))))))))...))))))))”, the Tm came to 53 °C.

As for “CGACGTGCTTCATGTGCTG+CAGCACATTAGGCACGTCG ((((((((.(.((((((((+)))))))).).))))))))”, the Tm was 50 °C.

Regarding “CGACGTGCTAGATGTGCTG+CAGCACATCAAGCACGTCG (((((((((.(((((((((+))))))))).)))))))))”, the Tm worked out at 57.5 °C.

“CGACGTGCTCAATGTGCTG+CAGCACATATGGCACGTCG ((((((((...((((((((+))))))))...))))))))”: the Tm worked out at 50.5 °C.

“CGACGTGCTTGATGTGCTG+CAGCACATGGCGCACGTCG ((((((((...((((((((+))))))))...))))))))”: the Tm was 47.2 °C.

For the substance “CGACGTGCCTTATGTGCTG+CAGCACATCACGCACGTCG ((((((((.(.((((((((+)))))))).).))))))))”, the Tm was found to be 46.7 °C.
